B1: KRT34 (parent)
chain: YQSYFKTIEELQQKILCAKAENAR

Variants of: B1
Experiment: protein stability index of a GFP-peptide fusion (GPS, HEK-293T) (PSI 1-6); higher = more stable
Conditions: c terminus: a fixed tail appended
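Also: lentivirally expressed fusions sorted by FACS into six bins by GFP to DsRed ratio, PSI derived from sequencing read proportions per bin multiplied by bin number.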

Variant | protein stability index
YQSYFKTIEELQQKQLCAKAENAR | 1.71
YQSYFKTIEELQQKELCAKAENAR | 2.03
YQSYFKTIEELQQKWLCAKAENAR | 2.2
YQSYFKTIEELQQKHLCAKAENAR | 1.87
YQSYFKTIEELQQKCLCAKAENAR | 1.16
YQSYFKTIEELQQKMLCAKAENAR | 1.89
YQSYFKTIEELQQKRLCAKAENAR | 1.66
YQSYFKTIEELQQKKLCAKAENAR | 2.71
YQSYFKTIEELQQKGLCAKAENAR | 1.45
YQSYFKTIEELQQKYLCAKAENAR | 2.25
YQSYFKTIEELQQKPLCAKAENAR | 1.71
YQSYFKTIEELQQKFLCAKAENAR | 1.6
YQSYFKTIEELQQKTLCAKAENAR | 1.57
YQSYFKTIEELQQKLLCAKAENAR | 1.95
YQSYFKTIEELQQKDLCAKAENAR | 1.88
YQSYFKTIEELQQKNLCAKAENAR | 2.23
YQSYFKTIEELQQKSLCAKAENAR | 1.81
YQSYFKTIEELQQPILCAKAENAR | 1.97
YQSYFKTIEELQQYILCAKAENAR | 1.46
YQSYFKTIEELQQSILCAKAENAR | 2.27
YQSYFKTIEELQQRILCAKAENAR | 1.77
YQSYFKTIEELQQQILCAKAENAR | 2.14
YQSYFKTIEELQQIILCAKAENAR | 1.52
YQSYFKTIEELQQEILCAKAENAR | 2.61

Variant | protein stability index
YQSYFKTIEELQQNILCAKAENAR | 1.53
YQSYFKTIEELQQCILCAKAENAR | 1.2
YQSYFKTIEELQQGILCAKAENAR | 1.69
YQSYFKTIEELQQTILCAKAENAR | 1.56
YQSYFKTIEELQQVILCAKAENAR | 1.98
YQSYFKTIEELQQMILCAKAENAR | 1.46
YQSYFKTIEELQQHILCAKAENAR | 1.99
YQSYFKTIEELQQWILCAKAENAR | 3.3
YQSYFKTIEELQQDILCAKAENAR | 1.23
YQSYFKTIEELQQAILCAKAENAR | 1.41
YQSYFKTIEELQQLILCAKAENAR | 2.62
YQSYFKTIEELQQFILCAKAENAR | 2
YQSYFKTIEELHQKILCAKAENAR | 2.34
YQSYFKTIEELRQKILCAKAENAR | 2.63
YQSYFKTIEELCQKILCAKAENAR | 1.78
YQSYFKTIEELMQKILCAKAENAR | 2.15
YQSYFKTIEELYQKILCAKAENAR | 1.77
YQSYFKTIEELTQKILCAKAENAR | 2.21
YQSYFKTIEELPQKILCAKAENAR | 1.4
YQSYFKTIEELNQKILCAKAENAR | 1.65
YQSYFKTIEELGQKILCAKAENAR | 1.97
YQSYFKTIEELIQKILCAKAENAR | 3.66
YQSYFKTIEELLQKILCAKAENAR | 1.9
YQSYFKTIEELEQKILCAKAENAR | 1.48

Variant | protein stability index
YQSYFKTIEELSQKILCAKAENAR | 1.77
YQSYFKTIEELDQKILCAKAENAR | 1.69
YQSYFKTIEELFQKILCAKAENAR | 2.02
YQSYFKTIEELKQKILCAKAENAR | 2
YQSYFKTIEELAQKILCAKAENAR | 1.6
YQSYFKTIEELVQKILCAKAENAR | 1.55
YQSYFKTIEELQQKITCAKAENAR | 1.72
YQSYFKTIEELQQKIHCAKAENAR | 2.12
YQSYFKTIEELQQKIICAKAENAR | 1.67
YQSYFKTIEELQQKIECAKAENAR | 2.63
YQSYFKTIEELQQKIYCAKAENAR | 2.28
YQSYFKTIEELQQKISCAKAENAR | 1.97
YQSYFKTIEELQQKIQCAKAENAR | 1.66
YQSYFKTIEELQQKINCAKAENAR | 1.75
YQSYFKTIEELQQKIDCAKAENAR | 1.96
YQSYFKTIEELQQKIGCAKAENAR | 2.02
YQSYFKTIEELQQKIMCAKAENAR | 1.89
YQSYFKTIEELQQKIFCAKAENAR | 1.6
YQSYFKTIEELQQKIPCAKAENAR | 1.41
YQSYFKTIEELQQKIACAKAENAR | 1.8
YQSYFKTIEELQQKIKCAKAENAR | 1.92
YQSYFKTIEELQQKICCAKAENAR | 1.84
YQSYFKTIEELQQKIWCAKAENAR | 1.29
YQSYFKTIEELQQKIRCAKAENAR | 2.02

Variant | protein stability index
YQSYFKTIEEHQQKILCAKAENAR | 1.55
YQSYFKTIEEKQQKILCAKAENAR | 2.34
YQSYFKTIEEMQQKILCAKAENAR | 1.81
YQSYFKTIEENQQKILCAKAENAR | 2.41
YQSYFKTIEEWQQKILCAKAENAR | 1.93
YQSYFKTIEEFQQKILCAKAENAR | 1.4
YQSYFKTIEECQQKILCAKAENAR | 2.56
YQSYFKTIEEDQQKILCAKAENAR | 1.5
YQSYFKTIEERQQKILCAKAENAR | 1.83
YQSYFKTIEEVQQKILCAKAENAR | 1.35
YQSYFKTIEEQQQKILCAKAENAR | 1.98
YQSYFKTIEETQQKILCAKAENAR | 1.62
YQSYFKTIEEAQQKILCAKAENAR | 1.79
YQSYFKTIEEPQQKILCAKAENAR | 2.3
YQSYFKTIEEGQQKILCAKAENAR | 2.58
YQSYFKTIEEEQQKILCAKAENAR | 1.88
YQSYFKTIEEIQQKILCAKAENAR | 2.13
YQSYFKTIEESQQKILCAKAENAR | 1.2
YQSYFKTIEEYQQKILCAKAENAR | 2.08
YQSYFKTIEELQQKILCQKAENAR | 1.83
YQSYFKTIEELQQKILCNKAENAR | 2.07
YQSYFKTIEELQQKILCIKAENAR | 2.04
YQSYFKTIEELQQKILCYKAENAR | 2.16
YQSYFKTIEELQQKILCEKAENAR | 1.45

Variant | protein stability index
YQSYFKTIEELQQKILCGKAENAR | 1.78
YQSYFKTIEELQQKILCKKAENAR | 1.99
YQSYFKTIEELQQKILCHKAENAR | 1.53
YQSYFKTIEELQQKILCPKAENAR | 2.21
YQSYFKTIEELQQKILCCKAENAR | 2.5
YQSYFKTIEELQQKILCVKAENAR | 1.88
YQSYFKTIEELQQKILCWKAENAR | 2.73
YQSYFKTIEELQQKILCRKAENAR | 1.68
YQSYFKTIEELQQKILCTKAENAR | 2.1
YQSYFKTIEELQQKILCDKAENAR | 2.16
YQSYFKTIEELQQKILCFKAENAR | 2.75
YQSYFKTIEELQQKILCLKAENAR | 2.04
YQSYFKTIEELQSKILCAKAENAR | 1.52
YQSYFKTIEELQRKILCAKAENAR | 2.16
YQSYFKTIEELQAKILCAKAENAR | 2.02
YQSYFKTIEELQIKILCAKAENAR | 1.5
YQSYFKTIEELQPKILCAKAENAR | 1.78
YQSYFKTIEELQTKILCAKAENAR | 1.74
YQSYFKTIEELQGKILCAKAENAR | 1.96
YQSYFKTIEELQFKILCAKAENAR | 2.05
YQSYFKTIEELQCKILCAKAENAR | 1.82
YQSYFKTIEELQKKILCAKAENAR | 1.95
YQSYFKTIEELQVKILCAKAENAR | 1.96
YQSYFKTIEELQMKILCAKAENAR | 1.82

Variant | protein stability index
YQSYFKTIEELQNKILCAKAENAR | 1.92
YQSYFKTIEELQYKILCAKAENAR | 1.54
YQSYFKTIEELQEKILCAKAENAR | 2.2
YQSYFKTIEELQDKILCAKAENAR | 2.26
YQSYFKTIEELQHKILCAKAENAR | 2.29
YQSYFKTIEELQLKILCAKAENAR | 1.46
YQSYFKTIVELQQKILCAKAENAR | 3.47
YQSYFKTISELQQKILCAKAENAR | 1.99
YQSYFKTIPELQQKILCAKAENAR | 1.29
YQSYFKTIWELQQKILCAKAENAR | 2.23
YQSYFKTIYELQQKILCAKAENAR | 1.64
YQSYFKTITELQQKILCAKAENAR | 1.84
YQSYFKTIQELQQKILCAKAENAR | 1.9
YQSYFKTIRELQQKILCAKAENAR | 1.75
YQSYFKTIEELQQKILCALAENAR | 2.93
YQSYFKTIEELQQKILCAEAENAR | 1.99
YQSYFKTIEELQQKILCACAENAR | 1.78
YQSYFKTIEELQQKILCADAENAR | 2.48
YQSYFKTIEELQQKILCAHAENAR | 1.64
YQSYFKTIEELQQKILCAMAENAR | 2.51
YQSYFKTIEELQQKILCATAENAR | 1.39
YQSYFKTIEELQQKILCASAENAR | 1.9
YQSYFKTIEELQQKILCAAAENAR | 1.87
YQSYFKTIEELQQKILCAGAENAR | 1.92

Variant | protein stability index
YQSYFKTIEELQQKILCANAENAR | 1.83
YQSYFKTIEELQQKILCAQAENAR | 2.62
YQSYFKTIEELQQKILCAIAENAR | 2.39
YQSYFKTIEELQQKILCARAENAR | 1.91
YQSYFKTIEELQQKILCAPAENAR | 2.15
YQSYFKTIEELQQKILCAFAENAR | 1.74
YQSYFKTIEELQQKILTAKAENAR | 2.04
YQSYFKTIEELQQKILIAKAENAR | 2.16
YQSYFKTIEELQQKILEAKAENAR | 2.39
YQSYFKTIEELQQKILAAKAENAR | 2.56
YQSYFKTIEELQQKILQAKAENAR | 2.56
YQSYFKTIEELQQKILKAKAENAR | 2.51
YQSYFKTIEELQQKILMAKAENAR | 2.11
YQSYFKTIEELQQKILNAKAENAR | 1.88
YQSYFKTIEELQQKILYAKAENAR | 2.15
YQSYFKTIEELQQKILPAKAENAR | 2.25
YQSYFKTIEELQQKILLAKAENAR | 2.6
YQSYFKTIEELQQKILGAKAENAR | 2.32
YQSYFKTIEELQQKILWAKAENAR | 2.94
YQSYFKTIEELQQKILHAKAENAR | 2.06
YQSYFKTIEELQQKILSAKAENAR | 2.19
YQSYFKTIEELQQKILRAKAENAR | 2.42
YQSYFKTIEELQQKILDAKAENAR | 1.84
YQSYFKTIEELQQKILVAKAENAR | 1.37

Variant | protein stability index
YQSYFKTIEELQQKILFAKAENAR | 1.97
YQSYFKTIEFLQQKILCAKAENAR | 2.41
YQSYFKTIEGLQQKILCAKAENAR | 1.7
YQSYFKTIERLQQKILCAKAENAR | 2.49
YQSYFKTIEYLQQKILCAKAENAR | 2.74
YQSYFKTIEKLQQKILCAKAENAR | 1.81
YQSYFKTIEHLQQKILCAKAENAR | 1.69
YQSYFKTIEWLQQKILCAKAENAR | 1.72
YQSYFKTIEPLQQKILCAKAENAR | 1.93
YQSYFKTIEILQQKILCAKAENAR | 1.96
YQSYFKTIECLQQKILCAKAENAR | 1.44
YQSYFKTIESLQQKILCAKAENAR | 1.83
YQSYFKTIEDLQQKILCAKAENAR | 1.61
YQSYFKTIEMLQQKILCAKAENAR | 2
YQSYFKTIEQLQQKILCAKAENAR | 1.19
YQSYFKTIENLQQKILCAKAENAR | 2.19
YQSYFKTIETLQQKILCAKAENAR | 1.27
YQSYFKTIEVLQQKILCAKAENAR | 2.04
YQSYFKTIELLQQKILCAKAENAR | 1.91
YQSYFKTIEALQQKILCAKAENAR | 1.95

Source: the supplement of paper PMC10567573
